Here are results for 2 substances from article doi:10.1101/2022.10.18.512691.

The target of assay [1] is APS-kinase from Methanothermococcus thermolithotrophicus (Methanothermococcus thermolithotrophicus). The assay can be described thus: crystal structure.
For assay [2], the target named is ATP-sulfurylase from Methanothermococcus thermolithotrophicus (Methanothermococcus thermolithotrophicus). The assay can be described thus: SEC. For orientation: SEC sorts molecules by how far they enter the pores of the column.
Assay [3] shares this target. Nature of the assay: crystal structure.

The term stoichiometry N denotes a count of units in the complex or per binding partner.

As to “APS-kinase from Methanothermococcus thermolithotrophicus (enzyme)”, in assay [1], the stoichiometry N came out at 2.

As for “ATP-sulfurylase from Methanothermococcus thermolithotrophicus (enzyme)”, the stoichiometry N in assay [2] and in assay [3] was 2 in each case.
